# B1: human NEK8-GFP wild type [human] / Flag-ANKS6 [not stated] (parent complex)
# chain 1: MEKYERIRVVGRGAFGIVHLCLRKADQKLVIIKQIPVEQMTKEERQAAQNECQVLKLLNHPNVIEYYENFLEDKALMIAMEYAPGGTLAEFIQKRCNSLLEEETILHFFVQILLALHHVHTHLILHRDLKTQNILLDKHRMVVKIGDFGISKILSSKSKAYTVVGTPCYISPELCEGKPYNQKSDIWALGCVLYELASLKRAFEAANLPALVLKIMSGTFAPISDRYSPELRQLVLSLLSLEPAQRPPLSHIMAQPLCIRALLNLHTDVGSVRMRRAEKSVAPSNTGSRTTSVRCRGIPRGPVRPAIPPPLSSVYAWGGGLGTPLRLPMLNTEVVQVAAGRTQKAGVTRSGRLILWEAPPLGAGGGSLLPGAVEQPQPQFISRFLEGQSGVTIKHVACGDFFTACLTDRGIIMTFGSGSNGCLGHGSLTDISQPTIVEALLGYEMVQVACGASHVLALSTERELFAWGRGDSGRLGLGTRESHSCPQQVPMPPGQEAQRVVCGIDSSMILTVPGQALACGSNRFNKLGLDHLSLGEEPVPHQQVEEALSFTLLGSAPLDQEPLLSIDLGTAHSAAVTASGDCYTFGSNQHGQLGTNTRRGSRAPCKVQGLEGIKMAMVACGDAFTVAIGAESEVYSWGKGARGRLGRRDEDAGLPRPVQLDETHPYTVTSVSCCHGNTLLAVRSVTDEPVPP
# chain 2: MGEGGLPPAFQLLLRACDQGDTETARRLLEPGAAEPAERGAEPEAGAEPAGAEVAGPGAAAAGAVGAPVPVDCSDEAGNTALQFAAAGGHEPLVRFLLRRGASVNSRNHYGWSALMQAARFGHVSVAHLLLDHGADVNAQNRLGASVLTVASRGGHLGVVKLLLEAGAFVDHHHPSGEQLGLGGSRDEPLDITALMAAIQHGHEAVVRLLMEWGADPNHAARTVGWSPLMLAALTGRLGVAQQLVEKGANPDHLSVLEKTAFEVALDCKHRDLVDYLDPLTTVRPKTDEEKRRPDIFHALKMGNFQLVKEIADEDPSHVNLVNGDGATPLMLAAVTGQLALVQLLVERHADVDKQDSVHGWTALMQATYHGNKEIVKYLLNQGADVTLRAKNGYTAFDLVMLLNDPDTELVRLLASVCMQVNKDKGRPSHQPPLPHSKVRQPWSIPVLPDDKGGLKSWWNRMSNRFRKLKLMQTLPRGLSSNQPLPFSDEPEPALDSTMRAAPQDKTSRSALPDAAPVTKDNGPGSTRGEKEDTLLTTMLRNGAPLTRLPSDKLKAVIPPFLPPSSFELWSSDRSRTRHNGKADPMKTALPQRASRGHPVGGGGTDTTPVRPVKFPSLPRSPASSANSGNFNHSPHSSGGSSGVGVSRHGGELLNRSGGSIDNVLSQIAAQRKKAAGLLEQKPSHRSSPVGPAPGSSPSELPASPAGGSAPVGKKLETSKRPPSGTSTTSKSTSPTLTPSPSPKGHTAESSVSSSSSHRQSKSSGGSSSGTITDEDELTGILKKLSLEKYQPIFEEQEVDMEAFLTLTDGDLKELGIKTDGSRQQILAAISELNAGKGRERQILQETIHNFHSSFESSASNTRAPGNSPCA
# Variants of: B1
# Assay: co-immunoprecipitation (anti-GFP IP, western blot band quantification); HEK293T cell lysates co-expressing NEK8-GFP and Flag-ANKS6; parent: 1; read off a plot
row,Variant,ratio to parent
1,chain 1 G580S,~0.97
2,chain 1 H425Y,~1

# Continued, values first:
row,ratio to parent,Variant
1,~0.95,chain 1 R602W
2,~0.42,chain 1 T87A
